Patent publication US20210246204A1 (Alector, published 2021)

B1: S7AB-H8.9.1 (antibody, V domains shown)
VH: QVQLVQSGAEVKKPGASVKVSCKASGYAFTAAWMNWVRQAPGQRLEWIGRIFPGLGHTNYAQKFQGRATLTEDTSTSTAYMELSSLRSEDTAVYYCARDYSDYYFDYWGQGTLVTVSS
VL: DIQMTQSPSSLSASVGDRVTITCRGSQDINTYLNWYQQKPGKAPKLLIYYTSRLHSGVPSRFSGSGSGTDYTLTISSLQPEDFATYYCQQGNTKPWTFGQGTKLEIK
B2: S7AB-H8.34.2 (antibody, V domains shown)
VH: QVQLVQSGAEVKKPGASVKVSCKASGYAFTAAWMNWVRQARGQRLEWIGRIFPGLGHTNYAQKFQGRATLTEDTSTSTAYMELSSLRSEDTAVYYCARDYSDYYFDYWGQGTLVTVSS
VL: DIQMTQSPSSLSASVGDRVTITCRGSQDINTYLNWYQQKPGKAPKLLIYYTSRLHSGVPSRFSGSGSGTDYTLTISSLQPEDFATYYCQQGGTLPWTFGQGTKLEIK
B3: S7AB-H8.10.1 (antibody, V domains shown)
VH: QVQLVQSGAEVKKPGASVKVSCKASGYAFTEAWMNWVRQAPGQRLEWIGRIFPGYGHTNYAQKFQGRATLTEDTSTSTAYMELSSLRSEDTAVYYCARDYSDYYFDYWGQGTLVTVSS
VL: DIQMTQSPSSLSASVGDRVTITCRGSQDINTYLNWYQQKPGKAPKLLIYYTSRLHSGVPSRFSGSGSGTDYTLTISSLQPEDFATYYCQQGNTKPWTFGQGTKLEIK
B4: S7AB-H8.10.2 (antibody, V domains shown)
VH: QVQLVQSGAEVKKPGASVKVSCKASGYAFTEAWMNWVRQARGQRLEWIGRIFPGYGHTNYAQKFQGRATLTEDTSTSTAYMELSSLRSEDTAVYYCARDYSDYYFDYWGQGTLVTVSS
VL: DIQMTQSPSSLSASVGDRVTITCRGSQDINTYLNWYQQKPGKAPKLLIYYTSRLHSGVPSRFSGSGSGTDYTLTISSLQPEDFATYYCQQGNTKPWTFGQGTKLEIK
B5: S7AB-H8.35.1 (antibody, V domains shown)
VH: QVQLVQSGAEVKKPGASVKVSCKASGYAFTEAWMNWVRQAPGQRLEWIGRIFPGYGHTNYAQKFQGRATLTEDTSTSTAYMELSSLRSEDTAVYYCARDYSDYYFDYWGQGTLVTVSS
VL: DIQMTQSPSSLSASVGDRVTITCRGSQDINTYLNWYQQKPGKAPKLLIYYTSRLHSGVPSRFSGSGSGTDYTLTISSLQPEDFATYYCQQGGTLPWTFGQGTKLEIK
B6: S7AB-H8.30.2 (antibody, V domains shown)
VH: QVQLVQSGAEVKKPGASVKVSCKASGYAFTEAWMNWVRQARGQRLEWIGRIFPGYGHTNYAQKFQGRATLTEDTSTSTAYMELSSLRSEDTAVYYCARDYSDYYFDYWGQGTLVTVSS
VL: DIQMTQSPSSLSASVGDRVTITCRASQDANTYLNWYQQKPGKAPKLLIYYTSRLHSGVPSRFSGSGSGTDYTLTISSLQPEDFATYYCQQGNLLPWTFGQGTKLEIK
B7: S7AB-H8.29.2 (antibody, V domains shown)
VH: QVQLVQSGAEVKKPGASVKVSCKASGYAFTAAWMNWVRQARGQRLEWIGRIFPGLGHTNYAQKFQGRATLTEDTSTSTAYMELSSLRSEDTAVYYCARDYSDYYFDYWGQGTLVTVSS
VL: DIQMTQSPSSLSASVGDRVTITCRASQDANTYLNWYQQKPGKAPKLLIYYTSRLHSGVPSRFSGSGSGTDYTLTISSLQPEDFATYYCQQGNLLPWTFGQGTKLEIK
B8: S7AB-H8.45.1 (antibody, V domains shown)
VH: QVQLVQSGAEVKKPGASVKVSCKASGYAFTEAWMNWVRQAPGQRLEWIGRIFPGYGHTNYAQKFQGRATLTEDTSTSTAYMELSSLRSEDTAVYYCARDYSDYYFDYWGQGTLVTVSS
VL: DIQMTQSPSSLSASVGDRVTITCRGSQDINTYLNWYQQKPGKAPKLLIYYTSRLHSGVPSRFSGSGSGTDYTLTISSLQPEDFATYYCQQGNILPWTFGQGTKLEIK
B9: S7AB-H8.35.2 (antibody, V domains shown)
VH: QVQLVQSGAEVKKPGASVKVSCKASGYAFTEAWMNWVRQARGQRLEWIGRIFPGYGHTNYAQKFQGRATLTEDTSTSTAYMELSSLRSEDTAVYYCARDYSDYYFDYWGQGTLVTVSS
VL: DIQMTQSPSSLSASVGDRVTITCRGSQDINTYLNWYQQKPGKAPKLLIYYTSRLHSGVPSRFSGSGSGTDYTLTISSLQPEDFATYYCQQGGTLPWTFGQGTKLEIK
B10: S7AB-H8.45.2 (antibody, V domains shown)
VH: QVQLVQSGAEVKKPGASVKVSCKASGYAFTEAWMNWVRQARGQRLEWIGRIFPGYGHTNYAQKFQGRATLTEDTSTSTAYMELSSLRSEDTAVYYCARDYSDYYFDYWGQGTLVTVSS
VL: DIQMTQSPSSLSASVGDRVTITCRGSQDINTYLNWYQQKPGKAPKLLIYYTSRLHSGVPSRFSGSGSGTDYTLTISSLQPEDFATYYCQQGNILPWTFGQGTKLEIK
B11: S7AB-H8.30.1 (antibody, V domains shown)
VH: QVQLVQSGAEVKKPGASVKVSCKASGYAFTEAWMNWVRQAPGQRLEWIGRIFPGYGHTNYAQKFQGRATLTEDTSTSTAYMELSSLRSEDTAVYYCARDYSDYYFDYWGQGTLVTVSS
VL: DIQMTQSPSSLSASVGDRVTITCRASQDANTYLNWYQQKPGKAPKLLIYYTSRLHSGVPSRFSGSGSGTDYTLTISSLQPEDFATYYCQQGNLLPWTFGQGTKLEIK
B12: S7AB-H8.34.1 (antibody, V domains shown)
VH: QVQLVQSGAEVKKPGASVKVSCKASGYAFTAAWMNWVRQAPGQRLEWIGRIFPGLGHTNYAQKFQGRATLTEDTSTSTAYMELSSLRSEDTAVYYCARDYSDYYFDYWGQGTLVTVSS
VL: DIQMTQSPSSLSASVGDRVTITCRGSQDINTYLNWYQQKPGKAPKLLIYYTSRLHSGVPSRFSGSGSGTDYTLTISSLQPEDFATYYCQQGGTLPWTFGQGTKLEIK
B13: S7AB-H8.44.1 (antibody, V domains shown)
VH: QVQLVQSGAEVKKPGASVKVSCKASGYAFTAAWMNWVRQAPGQRLEWIGRIFPGLGHTNYAQKFQGRATLTEDTSTSTAYMELSSLRSEDTAVYYCARDYSDYYFDYWGQGTLVTVSS
VL: DIQMTQSPSSLSASVGDRVTITCRGSQDINTYLNWYQQKPGKAPKLLIYYTSRLHSGVPSRFSGSGSGTDYTLTISSLQPEDFATYYCQQGNILPWTFGQGTKLEIK
B14: S7AB-H8.44.2 (antibody, V domains shown)
VH: QVQLVQSGAEVKKPGASVKVSCKASGYAFTAAWMNWVRQARGQRLEWIGRIFPGLGHTNYAQKFQGRATLTEDTSTSTAYMELSSLRSEDTAVYYCARDYSDYYFDYWGQGTLVTVSS
VL: DIQMTQSPSSLSASVGDRVTITCRGSQDINTYLNWYQQKPGKAPKLLIYYTSRLHSGVPSRFSGSGSGTDYTLTISSLQPEDFATYYCQQGNILPWTFGQGTKLEIK
B15: S7AB-H8.29.1 (antibody, V domains shown)
VH: QVQLVQSGAEVKKPGASVKVSCKASGYAFTAAWMNWVRQAPGQRLEWIGRIFPGLGHTNYAQKFQGRATLTEDTSTSTAYMELSSLRSEDTAVYYCARDYSDYYFDYWGQGTLVTVSS
VL: DIQMTQSPSSLSASVGDRVTITCRASQDANTYLNWYQQKPGKAPKLLIYYTSRLHSGVPSRFSGSGSGTDYTLTISSLQPEDFATYYCQQGNLLPWTFGQGTKLEIK
B16: S7AB-H8.9.2 (antibody, V domains shown)
VH: QVQLVQSGAEVKKPGASVKVSCKASGYAFTAAWMNWVRQARGQRLEWIGRIFPGLGHTNYAQKFQGRATLTEDTSTSTAYMELSSLRSEDTAVYYCARDYSDYYFDYWGQGTLVTVSS
VL: DIQMTQSPSSLSASVGDRVTITCRGSQDINTYLNWYQQKPGKAPKLLIYYTSRLHSGVPSRFSGSGSGTDYTLTISSLQPEDFATYYCQQGNTKPWTFGQGTKLEIK
B17: S7AB chimeric antibody (antibody, V domains shown)
VH: QVHLQQSGPELVKPGASVKISCKASGYAFTNCWMNWVRQRPGKGLDWIGRIFPGNGHTNYSGKFKDKATLTEDKSSSTAYMQLSSLTSEDSAVYFCARDYSDYYFDYWGQGTTLTVSS
VL: DVQMTQTTSSLSASLGDRVTISCRASQDINTYLNWYQQKPDGTVKLLIYYTSRLHSGVPSRFSGSGSGTDYSLTISNLEQEDIATYFCQQGNTLPWTFGGGTKLEIK

Molecular target: human Siglec-7 on primary human monocyte-derived dendritic cells (human, UniProt Q9Y286 19-467)
Sequence (Q9Y286 19-467): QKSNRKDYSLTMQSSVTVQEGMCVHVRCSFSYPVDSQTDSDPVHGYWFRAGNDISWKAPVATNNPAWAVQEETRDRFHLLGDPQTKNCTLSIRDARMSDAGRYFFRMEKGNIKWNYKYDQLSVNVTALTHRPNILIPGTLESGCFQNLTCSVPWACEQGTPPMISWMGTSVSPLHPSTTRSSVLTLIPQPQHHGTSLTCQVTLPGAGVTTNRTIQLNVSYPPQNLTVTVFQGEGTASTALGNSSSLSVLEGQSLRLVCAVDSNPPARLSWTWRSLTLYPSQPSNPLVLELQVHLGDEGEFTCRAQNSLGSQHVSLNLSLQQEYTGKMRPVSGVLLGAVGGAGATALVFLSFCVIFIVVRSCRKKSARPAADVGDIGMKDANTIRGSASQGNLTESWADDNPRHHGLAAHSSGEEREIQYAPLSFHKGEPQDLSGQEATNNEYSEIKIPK
Experiment: cell-based or functional assay

Fold increase in potency compared to AB-H8 [fold]	Fold increase in potency compared to Chimeric Ab [fold]	Maximal downregulation (% Siglec-7 remaining) [%]	Receptor downregulation, (EC50) (pM)	Binder
3.5	10.5	4.3	103	B1
3.3	9.9	5.4	110	B2
2.4	7	10.7	154	B3
2.1	6.4	12.1	169	B4
2	5.9	10.5	184	B5
3.2	9.4	10.1	115	B6
4.1	12.2	4.9	88.9	B7
3.7	11.2	7.8	97	B8
1.8	5.3	10.8	205	B9
3.3	9.9	8.7	109	B10
2.7	8.1	11.3	134	B11
3.6	10.9	4.4	99.5	B12
4.9	14.7	4.1	73.9	B13
4.7	14.1	3.3	76.7	B14
6.8	20.4	5.3	53.2	B15
3.1	9.2	4.5	118	B16
		28.6	1024	B17
